Experimental data reported in paper PMC4895691, “Suppressor of IKKɛ is an essential negative regulator of pathological cardiac hypertrophy” (Nature Communications, 2016).

Target: T1, Flag-tagged TBK1 (TANK-binding kinase 1), human, full length (human, UniProt Q9UHD2 1-729)
T1 construct: entire coding region cloned into the EcoRI and XhoI sites of pSicoR-Flag-C1; also called Flag-TBK1; pSicoR-Flag-TBK1; source: HEK293T, transfected, in lysate (co-IP); immunopurified from HEK293T and eluted with FLAG peptide (GST pull-down)
T1 sequence (looked up): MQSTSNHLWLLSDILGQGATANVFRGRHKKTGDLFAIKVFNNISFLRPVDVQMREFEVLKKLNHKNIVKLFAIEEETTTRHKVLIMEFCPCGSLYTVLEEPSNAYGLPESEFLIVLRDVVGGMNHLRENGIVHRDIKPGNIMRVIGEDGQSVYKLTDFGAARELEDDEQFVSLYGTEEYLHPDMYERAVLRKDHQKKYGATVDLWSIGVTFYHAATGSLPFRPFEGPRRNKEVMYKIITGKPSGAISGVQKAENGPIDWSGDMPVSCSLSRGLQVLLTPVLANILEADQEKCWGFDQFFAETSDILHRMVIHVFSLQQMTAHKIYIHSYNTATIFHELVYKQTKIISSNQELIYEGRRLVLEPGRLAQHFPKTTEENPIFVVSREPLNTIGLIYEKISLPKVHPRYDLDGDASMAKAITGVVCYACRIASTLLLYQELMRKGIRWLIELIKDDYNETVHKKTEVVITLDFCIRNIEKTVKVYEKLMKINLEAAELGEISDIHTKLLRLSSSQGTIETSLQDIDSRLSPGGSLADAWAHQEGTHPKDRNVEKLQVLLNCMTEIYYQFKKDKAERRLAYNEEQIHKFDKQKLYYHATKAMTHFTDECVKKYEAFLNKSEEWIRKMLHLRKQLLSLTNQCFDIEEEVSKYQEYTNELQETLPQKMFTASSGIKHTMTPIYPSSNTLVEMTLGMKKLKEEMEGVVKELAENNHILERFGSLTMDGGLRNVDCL
Experiment: pull-down; GST-SIKE from E. coli on glutathione-sepharose 4B beads incubated 4 h at 4 °C with immunopurified Flag-TBK1 from HEK293T; washed with IP lysis buffer, eluted with 20 mM reduced glutathione; anti-FLAG blot; GST tag as negative control
Conditions: both partners purified

binding result: binds
B1: GST-SIKE fusion protein, human SIKE (natural protein, UniProt Q9BRV8 1-207, looked up)
chain: MSCTIEKILTDAKTLLERLREHDAAAESLVDQSAALHRRVAAMREAGTALPDQYQEDASDMKDMSKYKPHILLSQENTQIRDLQQENRELWISLEEHQDALELIMSKYRKQMLQLMVAKKAVDAEPVLKAHQSHSAEIESQIDRICEMGEVMRKAVQVDDDQFCKIQEKLAQLELENKELRELLSISSESLQARKENSMDTASQAIK
notes: Suppressor of IKKɛ (SIKE), human; human SIKE gene cloned into pGEX-4T-1; also called pGEX-4T-1-GST-SIKE; source: E. coli Rosetta (DE3), purified on glutathione-sepharose 4B beads
